Measurements reported in patent US20220293215A1.
Where two headings read alike, the source gives them in different places.

Key:
[1] = molecular target: T1, I-A^b (MHCII) of murine bone marrow-derived dendritic cells from C57BL/6J mice (mouse), P14434; assay: MHCII peptidomics: Y3P IP of peptide-MHCII from BMDCs exposed to live Listeria, iTRAQ LC-MS/MS; details: scale: log2 fold change, Listeria 6 hr versus 10 min
T1 chain 1: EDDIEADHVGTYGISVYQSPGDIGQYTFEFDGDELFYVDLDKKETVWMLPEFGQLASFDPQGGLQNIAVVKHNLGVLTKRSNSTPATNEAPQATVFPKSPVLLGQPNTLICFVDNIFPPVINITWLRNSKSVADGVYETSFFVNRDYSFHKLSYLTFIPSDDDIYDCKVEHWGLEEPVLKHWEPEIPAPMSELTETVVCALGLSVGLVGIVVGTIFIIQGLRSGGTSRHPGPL
T1 chain 2: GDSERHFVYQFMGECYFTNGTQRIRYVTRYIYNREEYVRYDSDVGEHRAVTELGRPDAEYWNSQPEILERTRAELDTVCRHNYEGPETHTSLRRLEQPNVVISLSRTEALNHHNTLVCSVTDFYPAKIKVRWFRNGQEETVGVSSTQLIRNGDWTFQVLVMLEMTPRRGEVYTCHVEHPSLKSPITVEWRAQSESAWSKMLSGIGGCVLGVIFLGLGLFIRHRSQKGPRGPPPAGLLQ

[2] = molecular target: T1, I-A^b (MHCII) of murine bone …; details: scale: log2 fold change, Listeria 6 hr versus 10 min

How did the logFC [1] turn out when WNEKYAQAYPNVSAKI (modifications not checked) was run?
The logFC was 1.2.

With VERWNEKYAQAYPNVS (modifications not checked) as the binder, how does the logFC [1] read?
Its logFC is 0.285.

For ESVYLSAQKENPRLFAKIETF (modifications not checked) [Listeria peptide …n… (lmo1574 (dnaE))], which logFC [2] is on record?
Its logFC is 0.595.

Which logFC [1] does the source give for ERWNEKYAQAYPNVS (modifications not checked) here?
The logFC was 0.207.

WNEKYAQAYPNVS (modifications not checked) was tested. Which logFC [1] did it give?
Its logFC is 1.38.
